Source: article PMC3145769

What was measured:
Test in all cases: co-IP; anti-Flag M2 affinity gel on extracts of NIH3T3 cells transfected with 3xFlag Cyclin A2 alleles; endogenous partners detected by Western blot; densitometry (ImageQuantTL) normalised to immunoprecipitated Cyclin A2, percent of WT; repeated 5 times
[1] = target: Cyclin A2 Double (W207L, E210Q), C-terminally fused to 3 Flag tags (mouse) (UniProt P51943)
[2] = target: Cyclin A2 W207A, C-terminally fused to 3 Flag tags (mouse) (UniProt P51943)
Chain of Cyclin A2 W207A, C-terminally fused to 3 Flag tags (mouse) (P51943 whole entry W207A, the tested form may be a part): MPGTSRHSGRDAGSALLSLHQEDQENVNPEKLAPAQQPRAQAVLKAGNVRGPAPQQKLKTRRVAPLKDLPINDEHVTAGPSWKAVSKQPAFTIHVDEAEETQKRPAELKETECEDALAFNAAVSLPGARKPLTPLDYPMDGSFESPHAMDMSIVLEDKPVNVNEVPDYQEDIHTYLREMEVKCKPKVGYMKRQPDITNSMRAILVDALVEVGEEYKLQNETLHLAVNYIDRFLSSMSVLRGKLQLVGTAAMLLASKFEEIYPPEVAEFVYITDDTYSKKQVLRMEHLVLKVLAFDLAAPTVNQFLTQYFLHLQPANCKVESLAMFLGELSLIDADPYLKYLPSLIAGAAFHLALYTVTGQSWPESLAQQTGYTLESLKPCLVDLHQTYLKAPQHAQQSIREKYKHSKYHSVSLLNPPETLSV

[3] = target: Cyclin A2 E285A, C-terminally fused to 3 Flag tags (mouse) (UniProt P51943)
Chain of Cyclin A2 E285A, C-terminally fused to 3 Flag tags (mouse) (P51943 whole entry E285A, the tested form may be a part): as the sequence (P51943 whole entry W207A, the tested form may be a part) above, with A207W, E285A counted along it

[4] = target: Cyclin A2 E180A, C-terminally fused to 3 Flag tags (mouse) (UniProt P51943)
Chain of Cyclin A2 E180A, C-terminally fused to 3 Flag tags (mouse) (P51943 whole entry E180A, the tested form may be a part): as the sequence (P51943 whole entry W207A, the tested form may be a part) above, with E180A, A207W counted along it

[5] = target: Cyclin A2 E210Q, C-terminally fused to 3 Flag tags (mouse) (UniProt P51943)
Chain of Cyclin A2 E210Q, C-terminally fused to 3 Flag tags (mouse) (P51943 whole entry E210Q, the tested form may be a part): as the sequence (P51943 whole entry W207A, the tested form may be a part) above, with A207W, E210Q counted along it

[6] = target: Cyclin A2 WT, C-terminally fused to 3 Flag tags (mouse) (UniProt P51943)
Chain of Cyclin A2 WT, C-terminally fused to 3 Flag tags (mouse) (P51943 whole entry, the tested form may be a part): as the sequence (P51943 whole entry W207A, the tested form may be a part) above, with A207W counted along it

[7] = target: Cyclin A2 L204A, C-terminally fused to 3 Flag tags (mouse) (UniProt P51943)
Chain of Cyclin A2 L204A, C-terminally fused to 3 Flag tags (mouse) (P51943 whole entry L204A, the tested form may be a part): as the sequence (P51943 whole entry W207A, the tested form may be a part) above, with L204A, A207W counted along it

[8] = target: Cyclin A2 M200A, C-terminally fused to 3 Flag tags (mouse) (UniProt P51943)
Chain of Cyclin A2 M200A, C-terminally fused to 3 Flag tags (mouse) (P51943 whole entry M200A, the tested form may be a part): as the sequence (P51943 whole entry W207A, the tested form may be a part) above, with M200A, A207W counted along it

[9] = target: Cyclin A2 D171A, C-terminally fused to 3 Flag tags (mouse) (UniProt P51943)
Chain of Cyclin A2 D171A, C-terminally fused to 3 Flag tags (mouse) (P51943 whole entry D171A, the tested form may be a part): as the sequence (P51943 whole entry W207A, the tested form may be a part) above, with D171A, A207W counted along it

[10] = target: Cyclin A2 L282R, C-terminally fused to 3 Flag tags (mouse) (UniProt P51943)
Chain of Cyclin A2 L282R, C-terminally fused to 3 Flag tags (mouse) (P51943 whole entry L282R, the tested form may be a part): as the sequence (P51943 whole entry W207A, the tested form may be a part) above, with A207W, L282R counted along it

[11] = target: Cyclin A2 K256A, C-terminally fused to 3 Flag tags (mouse) (UniProt P51943)
Chain of Cyclin A2 K256A, C-terminally fused to 3 Flag tags (mouse) (P51943 whole entry K256A, the tested form may be a part): as the sequence (P51943 whole entry W207A, the tested form may be a part) above, with A207W, K256A counted along it

Chain of Cyclin A2 Double (W207L, E210Q), C-terminally fused to 3 Flag tags (mouse) (P51943 whole entry W207L/E210Q, the tested form may be a part): as the sequence (P51943 whole entry W207A, the tested form may be a part) above, with A207L, E210Q counted along it

CDK2 (endogenous, NIH3T3) (from UniProt P97377 1-346) (enzyme)
percent co-precipitated relative to WT [1]: 66.4% | percent co-precipitated relative to WT [2]: 1.2% | percent co-precipitated relative to WT [3]: 41.7% | percent co-precipitated relative to WT [4]: 17.7% | percent co-precipitated relative to WT [5]: 99.6% | percent co-precipitated relative to WT [6]: 100% | percent co-precipitated relative to WT [7]: 72.4% | percent co-precipitated relative to WT [8]: 86.4% | percent co-precipitated relative to WT [9]: 100% | percent co-precipitated relative to WT [10]: 81.5%

CDK2 (endogenous, NIH3T3) (from UniProt P97377 1-346)
percent co-precipitated relative to WT [11]: 68.2%
